Data from patent publication US20090291081A1 (AbbVie / Abbott, published 2009).
Where “and” joins values, the source holds several entries; their conditions need not be identical. Identical values can stand only once. Like-named read-outs stand apart in the source and are kept apart here. Blank lines part the entries; values can stand above or below the binder they belong to.

Assays:
[1] = target: T1, human IL-1α (human, UniProt P01583 113-271); assay: cell-based or functional assay
T1 sequence (looked up): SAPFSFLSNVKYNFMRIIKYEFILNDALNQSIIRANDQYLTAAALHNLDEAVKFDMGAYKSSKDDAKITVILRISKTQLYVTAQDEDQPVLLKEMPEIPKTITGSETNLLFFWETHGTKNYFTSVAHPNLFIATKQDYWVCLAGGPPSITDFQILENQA

[2] = target: T1, human IL-1α; assay: BIAcore kinetic analysis of the dAb
[3] = target: T1, human IL-1α; assay: BIAcore, IL-1α coated chip, dAb flowed over
[4] = target: T2, human IL-1β (human, UniProt P01584 117-269); assay: cell-based or functional assay
[5] = target: T2, human IL-1β; assay: BIAcore kinetic analysis of the dAb
[6] = target: T2, human IL-1β; assay: cell-based or functional assay; remark: listed apart in the source
[7] = target: T2, human IL-1β; assay: BIAcore kinetic analysis of the dAb; remark: listed apart in the source
[8] = target: T1, human IL-1α; assay: BIAcore kinetic analysis of the dAb; remark: listed apart in the source
[9] = target: T2, human IL-1β; assay: BIAcore kinetic analysis of the dAb; remark: listed apart in the source
[10] = target: T1, human IL-1α; assay: cell-based or functional assay; remark: listed apart in the source
[11] = target: T1, human IL-1α; assay: method not given
[12] = target: T1, human IL-1α; assay: BIAcore, purified dAb
[13] = target: T1, human IL-1α; assay: Biacore, IgG captured by goat anti-human IgG Fc; rhIL-1 alpha 100 nM then rhIL-1 beta 200 nM
Method: (§1) The antibody (1-5 ug/ml) was first captured on a goat anti human IgG FC surface.

[14] = target: T2, human IL-1β; assay: as above
Method: as §1

[15] = target: T1, human IL-1α; assay: cell-based or functional assay; remark: listed apart in the source
[16] = target: T2, human IL-1β; assay: cell-based or functional assay; remark: listed apart in the source
[17] = target: T1, human IL-1α; assay: cell-based or functional assay; remark: listed apart in the source
[18] = target: T2, human IL-1β; assay: cell-based or functional assay; remark: listed apart in the source
[19] = target: T1, human IL-1α; assay: Biacore, IgG captured by goat anti-human IgG Fc
[20] = target: T2, human IL-1β; assay: Biacore, IgG captured by goat anti-human IgG Fc
[21] = target: T2, human IL-1β; assay: Biacore, IgG captured by goat anti-human IgG Fc; rhIL-1 beta followed by rhIL-1 alpha
Method: as §1

[22] = target: T1, human IL-1α; assay: cell-based or functional assay; remark: listed apart in the source
[23] = target: T1, human IL-1α; assay: BIAcore, purified dAb; remark: listed apart in the source
[24] = target: T1, human IL-1α; assay: IL-1 Receptor Binding Assay
[25] = target: T1, human IL-1α; assay: cell-based or functional assay; remark: listed apart in the source
[26] = target: T1, human IL-1α; assay: BIAcore kinetic analysis of the dAb; remark: listed apart in the source
[27] = target: T1, human IL-1α; assay: BIAcore kinetic analysis of the dAb; remark: listed apart in the source
[28] = target: T2, human IL-1β; assay: BIAcore kinetic analysis of the dAb; remark: listed apart in the source
[29] = target: T2, human IL-1β; assay: BIAcore kinetic analysis of the dAb; remark: listed apart in the source
[30] = target: T2, human IL-1β; assay: BIAcore kinetic analysis of the dAb; remark: listed apart in the source

B6: ABT1-95-3 (other)
VL: DIQMTQSPSSLSASVGDRVTITCRASQPIHGNLRWYQQKPGKAPKLLIYSSSYLQSGVPSRFSGSGSGTDFTLTISSLQPEDFATYHCQQGYRWPVTFGQGTKVEIKR
notes: dAb, Vκ, to IL-1α
- MRC5 ND50 [10]: 50 nM
- Kd [11]: 5 to 10 nM
- Kd [12]: 5.4 nM
- Kd [3]: 7 to 12 nM

B8: ABT1-95-13 (other)
VL: DIQMTQSPSSLSASVGDRVTITCRASQPIVRNLRWYQQKPGKAPKLLIYSSSYLERGVPSRFSGSGSGTDFTLTISSLQPEDFATYHCQQGYRWPVTFGQGTKVEIKR
notes: dAb, Vκ, to IL-1α
- MRC5 ND50 [10]: 0.11 nM
- ND50 [22]: 120 pM
- Kd [23]: 0.95 nM

B9: ABT1-95-8 (other)
VL: DIQMTQSPSSLSASVGDRVTITCRASQPIQGNLRWYQQKPGKAPKLLIYSSSYLERGVPSRFSGSGSGTDFTLTISSLQPEDFATYHCQQGYRWPVTFGQGTKVEIKR
notes: dAb, Vκ, to IL-1α
- MRC5 ND50 [10]: 0.9 nM
- Kd [11]: 0.9 nM
- IC50 [24]: 1 nM

B10: ABT1-95-14 (other)
VL: DIQMTQSPSSLSASVGDRVTITCRASQPIVKNLRWYQQKPGKAPKLLIYSSSYLERGVPSRFSGSGSGTDFTLTISSLQPEDFATYHCQQGYRWPVTFGQGTKVEIKR
notes: dAb, Vκ, to IL-1α
- MRC5 ND50 [10]: 0.25 nM
- ND50 [22]: 250 pM
- Kd [23]: 1.2 nM

B11: ABT1-95-15 (other)
VL: DIQMTQSPSSLSASVGDRVTITCRASQPIVRNLRWYQQKPGKAPKLLIYSSSYLEPGVPSRFSGSGSGTDFTLTISSLQPEDFATYHCQQGYRWPVTFGQGTKVEIKR
notes: dAb, Vκ, to IL-1α
- ND50 [22]: 45 pM
- Kd [23]: 0.67 nM

B13: ABT1-96 (other)
VH: EVQLLESGGGLVQPGGSLRLSCAASGFTFNQYNMFWVRQAPGKGLEWVSVISGSGRFTYYADSVKGRFTISRDNSKNTLYLQMNSLRAEDTAVYYCAKGWWRRDPPFDYWGQGTLVTVSS
notes: dAb, VH, to IL-1α; also called dAb ABT1-96
- MRC5 ND10 [1]: 3 nM
- MRC5 ND50 [1]: 11 nM
- Kd [27]: 1.1 nM
- koff [27]: 0.00039 s⁻¹
- kon [27]: 370000 M⁻¹ s⁻¹

B14: ABT2-46 (other)
VL: DIQMTQSPSSLSASVGDRVTITCRASQSIIEWLSWYQQKPGKAPKLLIYRTSVLQSGVPSRFSGSGSGTDFTLTISSLQPEDFATYYCQQNEFWPFTFGQGTKVEIKR
notes: dAb, Vκ, to IL-1β; also called dAb ABT2-46
- MRC5 ND10 [4]: 70 nM
- MRC5 ND50 [4]: 386 nM
- Kd [28]: 2800 nM
- koff [28]: 0.063 s⁻¹
- kon [28]: 23000 M⁻¹ s⁻¹

Other lines, results leading:

- MRC5 ND10 [1]: 9 nM
- MRC5 ND50 [1]: 50 nM
- Kd [2]: 42 nM
- koff [2]: 0.28 s⁻¹
- kon [2]: 6.6e+06 M⁻¹ s⁻¹
- Kd [3]: 40 to 86 nM
B1: ABT1-122 (other)
VL: DIQMTQSPSSLSASVGDRVTITCRASQPIWTELNWYQQKPGKAPKLLIYGSSSLQSGVPSRFSGSGSGTDFTLTISSLQPEDFATYYCQQFAYFPATFGQGTKVEIKR
notes: dAb, Vκ, to IL-1α

- MRC5 ND10 [4]: 100 nM
- MRC5 ND50 [4]: 266 nM
- Kd [5]: 97 nM
- koff [5]: 0.02 s⁻¹
- kon [5]: 250000 M⁻¹ s⁻¹
- MRC5 ND50 [6]: 266 nM
B2: ABT2-65 (other)
VH: EVQLLESGGGLVQPGGSLRLSCAASGFTFEDYQMGWVRQAPGKGLEWVSSISAMGNRTYYADSVKGRFTISRDDSKNTLYLQMNSLRAEDTAVYYCAKNLVRTQSKMWMFDYWGQGTLVTVSS
notes: dAb, VH, to IL-1β; also called dAb ABT2-65

- MRC5 ND10 [4]: 150 nM
- MRC5 ND50 [4]: 250 nM
- Kd [7]: 110 nM
- koff [7]: 0.0031 s⁻¹
- kon [7]: 29000 M⁻¹ s⁻¹
B3: ABT2-108 (other)
VH: EVQLLESGGGLVQPGGSLRLSCAASGFTFAEYTMMWVRQAPGKGLEWVSRIGQDGKNTYYADSVKGRFTISRDNSKNTLYLQMNSLRAEDTAVYYCAKYTGRVGVHHLFDYWGQGTLVTSS
notes: dAb, VH, to IL-1β

- MRC5 ND10 [1]: 10 nM
- MRC5 ND50 [1]: 30 nM
- Kd [8]: 13 nM
- koff [8]: 0.027 s⁻¹
- kon [8]: 2e+06 M⁻¹ s⁻¹
B4: ABT1-98 (other)
VH: EVQLLESGGGLVQPGGSLRLSCAASGFTFDGYIMSWVRQAPGKGLEWVSTISPLGSVTYYADSVKGRFTISRDNSKNTLYLQMNSLRAEDTAVYYCAKKGPWFDYWGQGTLVTVSS
notes: dAb, VH, to IL-1α; also called dAb ABT1-98

- MRC5 ND10 [4]: 100 nM
- MRC5 ND50 [4]: 800 nM
- Kd [9]: 930 nM
- koff [9]: 0.075 s⁻¹
- kon [9]: 81000 M⁻¹ s⁻¹
B5: ABT2-13 (other)
VH: EVQLLESGGGLVQPGGSLRLSCAASGFTFRDYVMYWARQAPGKGLEWVSRIDPMGSSTYYADSVKGRFTISRDNSKNTLYLQMNSLRAEDTAVYYCAKPEGNFDYWGQGTLVTVSS
notes: dAb, VH, to IL-1β; also called dAb ABT2-13

- stoichiometry [13]: 2
- stoichiometry [14]: 0.9
- IL-1α IC50 [15]: 0.002 nM
- IL-1β IC50 [16]: 0.0073 nM
- IC50 (MRC-5 neutralization assay) [17]: < 0.001 nM
- MRC-5 IL-1a inhibition assay EC50 [17]: 0.00446 nM
- IC50 (MRC-5 neutralization assay) [18]: 0.00558 nM
- Kd [19]: 0.0887 nM and 0.0835 nM
- koff [19]: 4.25e-05 s⁻¹ and 4.11e-05 s⁻¹
- kon [19]: 479000 M⁻¹ s⁻¹ and 492000 M⁻¹ s⁻¹
- Kd [20]: 0.446 nM and 0.361 nM
- koff [20]: 0.000138 s⁻¹ and 0.000102 s⁻¹
- kon [20]: 315000 M⁻¹ s⁻¹ and 283000 M⁻¹ s⁻¹
- Kd ([20]; mean): 0.404 nM
- koff ([20]; mean): 0.00012 s⁻¹
- kon ([20]; mean): 299000 M⁻¹ s⁻¹
- stoichiometry [21]: 0.98
B7: ABT2-108-620x/ABT1-95-A3 hu IgG1/K mut (234; 235) (bispecific antibody, V domains shown)
VH: EVQLLESGGGLVQPGGSLRLSCAASGFTFAEESWMWVRQAPGKGLEWVSRIGQDGKNTYYREDVKGRFTISRDNSKNTLYLQMNSLRAEDTAVYYCAKYTGRIMGHHLFDYWGQGTLVTVSS
VL: DIQMTQSPSSLSASVGDRVTITCRASKPGVRNMRWYQQKPGKAPKLLIYSVSYLEPGVPSRFSGSGSGTDFTLTISSLQPEDFATYHCLQGYRWPPTFGQGTKVEIKR
notes: hu IgG1/K mut (234)

- MRC5 ND10 [1]: 10 nM
- MRC5 ND50 [1]: 70 nM
- MRC5 ND50 [25]: 70 nM
- Kd [26]: 300 nM
- koff [26]: 0.0039 s⁻¹
- kon [26]: 13000 M⁻¹ s⁻¹
B12: ABT1-141 (other)
VL: DIQMTQSPSSLSASVGDRVTITCRASQWIQKQLAWYQQKPGKAPKLLIYSSSYLQSGVPSRFSGSGSGTDFTLTISSLQPEDFATYYCQQHLRVPFTFGQGTKVEIKR
notes: dAb, Vκ, to IL-1α; also called dAb ABT1-141

- MRC5 ND10 [4]: 100 nM
- MRC5 ND50 [4]: 770 nM
- Kd [29]: 54000 nM
- koff [29]: 0.13 s⁻¹
- kon [29]: 2500 M⁻¹ s⁻¹
B15: ABT2-42 (other)
VL: DIQMTQSPSSLSASVGDRVTITCRASQYIEKWLTWYQQKPGKAPTLLIYRGSLLQSGVPSRFSGSGSGTDFTLTISSLQPEDFATYYCQQTEYWPFTFGQGTKVEIKR
notes: dAb, Vκ, to IL-1β; also called dAb ABT2-42

- MRC5 ND10 [4]: 50 nM
- MRC5 ND50 [4]: 456 nM
- Kd [30]: 1300 nM
- koff [30]: 0.027 s⁻¹
- kon [30]: 20000 M⁻¹ s⁻¹
B16: ABT2-76 (other)
VL: DIQMTQSPSSLSASVGDRVTITCRASQSIDRWLAWYQQKPGKAPKLLIYRGSILQSGVPSRFSGSGSGTDFTLTISSLQPEDFATYYCQQVAFWPPTFGQGTKVEIKR
notes: dAb, Vκ, to IL-1β; also called dAb ABT2-76
